What is called Kd is the equilibrium constant for the complex coming apart.

Common to all, as to experiment: SPR
(In general: SPR reads the build-up and loss of mass on a sensor chip optically.)

The target of test [1] is wild-type SARS-CoV-2 Spike receptor-binding domain (SARS-CoV-2) (UniProt P0DTC2).
Test [2] has as its target emorisin (Emergomyces orientalis).
The next test addresses AMSIN (actinomyces).

Regarding (ΔGFG)AMSIN (peptide), the Kd in test [1] worked out at 119 nM.
For “wild-type SARS-CoV-2 Spike receptor-binding domain (from UniProt P0DTC2 319-527) (domain or fragment)”, the Kd amounted to 7.6 nM in test [2] and 193 nM with AMSIN (actinomyces).

Source of the values: paper PMC10315472.
